From patent US10753947B2, “Methods for screening voltage-gated proteins” (D.E. Shaw Research, LLC, priority 2012, dated 2020)
pIC50: −log10 of the molar value.

Legend:
Kv1.1 = Kv1.1 (Homo sapiens, UniProt Q09470); details: Table 5; read-out: IC50, channel Kv1.1; cited from earlier work
[1] = target: T1, Kv2.1 T359S K360G A366D S367A I383M Y384T K386V (Homo sapiens, UniProt Q14721, A366D/I383M/K360G/K386V/S367A/T359S/Y384T); details: Table 5; read-out: IC50, channel Kv2.1 T359S K360G A366D S367A I383M Y384T K386V; cited from earlier work
T1 sequence (Q14721 1-858 T359S/K360G/A366D/S367A/I383M/Y384T/K386V): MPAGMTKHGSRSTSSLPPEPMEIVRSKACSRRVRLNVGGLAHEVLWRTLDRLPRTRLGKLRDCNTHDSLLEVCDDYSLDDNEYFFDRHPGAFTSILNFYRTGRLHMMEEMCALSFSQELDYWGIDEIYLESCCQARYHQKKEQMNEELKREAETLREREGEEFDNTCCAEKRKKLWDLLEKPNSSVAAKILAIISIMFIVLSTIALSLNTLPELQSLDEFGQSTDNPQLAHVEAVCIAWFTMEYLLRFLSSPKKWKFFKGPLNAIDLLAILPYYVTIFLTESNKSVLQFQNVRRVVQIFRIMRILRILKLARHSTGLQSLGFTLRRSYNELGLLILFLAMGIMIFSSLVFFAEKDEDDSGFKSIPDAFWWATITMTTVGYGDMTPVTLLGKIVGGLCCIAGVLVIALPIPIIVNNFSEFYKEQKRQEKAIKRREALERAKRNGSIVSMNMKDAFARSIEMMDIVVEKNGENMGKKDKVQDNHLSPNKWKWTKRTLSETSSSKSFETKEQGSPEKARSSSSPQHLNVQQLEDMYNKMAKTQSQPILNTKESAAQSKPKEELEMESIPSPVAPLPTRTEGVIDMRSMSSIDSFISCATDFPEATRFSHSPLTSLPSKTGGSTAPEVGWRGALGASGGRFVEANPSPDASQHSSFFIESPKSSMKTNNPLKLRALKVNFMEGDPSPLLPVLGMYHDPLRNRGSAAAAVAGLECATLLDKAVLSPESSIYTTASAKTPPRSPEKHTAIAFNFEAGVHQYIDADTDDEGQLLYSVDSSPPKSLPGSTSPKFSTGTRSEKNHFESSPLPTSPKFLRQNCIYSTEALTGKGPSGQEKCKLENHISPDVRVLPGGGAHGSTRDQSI

Shaker = Shaker (Drosophila melanogaster, UniProt P08510, DUP563-563/L584V/Q583H); details: Table 5; read-out: IC50, channel Shaker; cited from earlier work
Sequence of Shaker (P08510 with tags, fused parts or gaps DUP563-563/Q583H/L584V): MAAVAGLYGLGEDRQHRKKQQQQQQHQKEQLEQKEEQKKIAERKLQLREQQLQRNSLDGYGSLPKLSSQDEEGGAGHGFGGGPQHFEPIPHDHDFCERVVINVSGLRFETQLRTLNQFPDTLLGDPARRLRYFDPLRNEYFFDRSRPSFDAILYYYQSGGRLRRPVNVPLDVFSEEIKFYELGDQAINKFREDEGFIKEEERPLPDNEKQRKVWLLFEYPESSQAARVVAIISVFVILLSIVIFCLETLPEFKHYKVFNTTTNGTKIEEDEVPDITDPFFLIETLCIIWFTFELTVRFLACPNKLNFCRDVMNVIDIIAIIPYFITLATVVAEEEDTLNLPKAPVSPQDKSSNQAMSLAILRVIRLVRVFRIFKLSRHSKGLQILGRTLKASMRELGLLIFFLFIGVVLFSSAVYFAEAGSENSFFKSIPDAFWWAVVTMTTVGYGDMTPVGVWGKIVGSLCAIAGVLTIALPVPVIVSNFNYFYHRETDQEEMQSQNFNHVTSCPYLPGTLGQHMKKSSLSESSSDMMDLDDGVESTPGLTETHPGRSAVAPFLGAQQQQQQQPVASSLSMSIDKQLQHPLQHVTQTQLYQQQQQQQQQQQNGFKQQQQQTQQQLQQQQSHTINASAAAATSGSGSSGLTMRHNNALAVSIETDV

Kv2.1 R300S (R2S) = assay: Alpha currents (Iα) of Kv2.1 R2S in Xenopus oocytes, two electrode voltage-clamp; type: cell-based, human; details: 1 nM AgTx2, R2S
From the text: The coding cDNAs of KV2.1 “wild-type” (hereinafter WT) base construct (hKv2.1-m7-c3 is human Kv2.1, residues 1-858, mutated to confer AgTx2 sensitivity and to remove extracellular cysteine residues) was synthesized (Entelchon GmbH) and cloned into the high expression vector pBSTA.
Mutations Kv2.1 R294N (hereinafter R0N), Kv2.1 R300S (hereinafter R2S), Kv2.1 R294C/R300S (hereinafter R0C/R2S), Kv2.1 R293S/R294S (hereinafter R-1S/R0S), Kv2.1 R293S/R294C (hereinafter R-1S/R0C), Kv2.1 R293S/R294S/R300S (hereinafter R-1S/R0S/R2S), Kv2.1 R293S/R294C/R300S (hereinafter R-1S/R0C/R2S) were introduced using the QuikChange® Lightning Site-Directed Mutagenesis Kit (Stratagene) with mutagenic primers according to the manufacturer's instructions. All constructs were checked by restriction site mapping and sequencing.
Transcripted cRNA was produced using the mMessage mMachine kit (Ambion Inc.). Two to four days past injection of cRNA into stage V-VI Xenopus oocytes (NASCO) potassium currents through the alpha pore (Iα) were recorded with the two electrode voltage-clamp technique making use of a TURBO TEC-05× amplifier (npi electronic GmbH). Currents were filtered at 10 kHz and sampled at 20 kHz. The bath solution contained (in mM): NaCl 96, KCl 2, CaCl2 1, MgCl2 1 and HEPES 5 (pH 7.5). […]

Sequence of Kv1.1 (Q09470 whole entry): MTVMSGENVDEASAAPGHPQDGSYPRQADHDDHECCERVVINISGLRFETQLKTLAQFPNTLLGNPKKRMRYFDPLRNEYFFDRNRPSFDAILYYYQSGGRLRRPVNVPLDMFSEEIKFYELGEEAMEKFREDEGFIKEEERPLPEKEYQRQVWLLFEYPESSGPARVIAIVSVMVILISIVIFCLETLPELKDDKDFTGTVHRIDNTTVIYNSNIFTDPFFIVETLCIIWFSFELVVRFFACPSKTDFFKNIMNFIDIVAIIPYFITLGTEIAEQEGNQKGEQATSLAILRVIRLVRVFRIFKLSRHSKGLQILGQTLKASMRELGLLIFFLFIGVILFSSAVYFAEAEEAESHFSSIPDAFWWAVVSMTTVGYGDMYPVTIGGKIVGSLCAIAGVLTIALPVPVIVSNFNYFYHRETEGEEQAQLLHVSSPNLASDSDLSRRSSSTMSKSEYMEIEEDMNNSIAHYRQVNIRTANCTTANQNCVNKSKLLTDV

Substance | pIC50 (Kv1.1) | pIC50 [1] | pIC50 (Shaker) | Mean inhibition of the maximal outward current at +60 mV (Kv2.1 R300S (R2S))
Agitotoxin-2 (GVPINVSCTGSPQCIKPCKDAGMRFGKCMNRKCHCTPK) [AgTx2] | 10.36 | 11.15 | 9.19 | 67.8±2.8%
Guangxitoxin (EGECGGFWWKCGSGKPACCPKYVCSPKWGLCNFPMP) [GxTx-1E] | – | ~8.70 | – | –
